Assays:
[1] = target: endogenous tau of rat primary nerve cells, P19332
[2] = target: wild-type human tau overexpressed in H4-tau cells

endogenous tau of rat primary nerve cells, P19332, sequence (P19332 2-752): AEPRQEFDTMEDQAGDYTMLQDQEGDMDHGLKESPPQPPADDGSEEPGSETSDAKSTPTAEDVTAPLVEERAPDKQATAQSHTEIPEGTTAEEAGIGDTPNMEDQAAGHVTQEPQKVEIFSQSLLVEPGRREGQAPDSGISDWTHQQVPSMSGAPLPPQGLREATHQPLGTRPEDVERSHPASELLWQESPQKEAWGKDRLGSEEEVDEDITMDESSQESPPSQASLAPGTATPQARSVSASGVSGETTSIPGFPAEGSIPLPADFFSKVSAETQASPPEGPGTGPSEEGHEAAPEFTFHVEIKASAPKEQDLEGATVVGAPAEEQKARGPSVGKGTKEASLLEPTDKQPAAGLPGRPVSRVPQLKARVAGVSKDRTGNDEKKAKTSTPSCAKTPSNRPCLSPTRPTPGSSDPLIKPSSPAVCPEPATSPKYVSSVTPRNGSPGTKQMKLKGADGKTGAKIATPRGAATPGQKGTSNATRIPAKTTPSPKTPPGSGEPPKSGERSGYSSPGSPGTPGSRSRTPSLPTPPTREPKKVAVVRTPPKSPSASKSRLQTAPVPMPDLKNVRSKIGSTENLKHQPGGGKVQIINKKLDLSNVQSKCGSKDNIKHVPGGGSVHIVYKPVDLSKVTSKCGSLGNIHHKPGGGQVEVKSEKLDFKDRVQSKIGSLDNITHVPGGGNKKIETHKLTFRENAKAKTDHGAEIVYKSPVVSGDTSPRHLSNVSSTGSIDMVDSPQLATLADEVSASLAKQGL

B1: human PRKX (hPRKXkai), overexpressed from pPRKXkai plasmid or PRKX overexpression lentivirus (protein)
chain: MEAPGLAQAAAAESDSRKVAEETPDGAPALCPSPEALSPEPPVYSLQDFDTLATVGTGTFGRVHLVKEKTAKHFFALKVMSIPDVIRLKQEQHVHNEKSVLKEVSHPFLIRLFWTWHDERFLYMLMEYVPGGELFSYLRNRGRFSSTTGLFYSAEIICAIEYLHSKEIVYRDLKPENILLDRDGHIKLTDFGFAKKLVDRTWTLCGTPEYLAPEVIQSKGHGRAVDWWALGILIFEMLSGFPPFFDDNPFGIYQKILAGKIDFPRHLDFHVKDLIKKLLVVDRTRRLGNMKNGANDVKHHRWFRSVDWEAVPQRKLKPPIVPKIAGDGDTSNFETYPENDWDTAAPVPQKDLEIFKNF
**Q.** For B1, which “amount of S214 phosphorylated tau, ELISA, PRKX lentivirus MOI 1” value [1] is on record?
**A.** Its value is 3.0-fold, 4.2-fold and 6.3-fold enhanced amounts of S214 phosphorylated tau were found in the cells infected with PRKX overexpression lentivirus at MOI-1, 3 and 6, respectively.

**Q.** What about the “amount of S214 phosphorylated tau, ELISA, PRKX lentivirus MOI 3” value [1] of the same protein?
**A.** Its value is 3.0-fold, 4.2-fold and 6.3-fold enhanced amounts of S214 phosphorylated tau were found in the cells infected with PRKX overexpression lentivirus at MOI-1, 3 and 6, respectively.

**Q.** And the “amount of S214 phosphorylated tau, ELISA, PRKX lentivirus MOI 6” value [1]?
**A.** The value was 3.0-fold, 4.2-fold and 6.3-fold enhanced amounts of S214 phosphorylated tau were found in the cells infected with PRKX overexpression lentivirus at MOI-1, 3 and 6, respectively.

**Q.** What about the “S214 phosphorylation of tau, Western blot, 0.02 µg PRKX expression plasmid” value [2] of the same protein?
**A.** The value was 1.3-fold, 1.9-fold and 2.9-fold enhanced S214 phosphorylation was found in the cells incorporating 0.02 µg, 0.06 µg and 0.2 µg of PRKX expression plasmid, respectively.

**Q.** What about the “S214 phosphorylation of tau, Western blot, 0.06 µg PRKX expression plasmid” value [2] of the same protein?
**A.** Its value is 1.3-fold, 1.9-fold and 2.9-fold enhanced S214 phosphorylation was found in the cells incorporating 0.02 µg, 0.06 µg and 0.2 µg of PRKX expression plasmid, respectively.

**Q.** And the “S214 phosphorylation of tau, Western blot, 0.2 µg PRKX expression plasmid” value [2]?
**A.** The value was 1.3-fold, 1.9-fold and 2.9-fold enhanced S214 phosphorylation was found in the cells incorporating 0.02 µg, 0.06 µg and 0.2 µg of PRKX expression plasmid, respectively.

**Q.** What about the “amount of S214 phosphorylated tau in the total tau, ELISA, 0.02 µg PRKX expression plasmid” value [2] of the same protein?
**A.** The value was 2.5-fold, 3.4-fold and 5.8-fold enhanced S214 phosphorylation was found in the cells incorporating 0.02 µg, 0.06 µg and 0.2 µg of PRKX expression plasmid, respectively.

**Q.** What about the “amount of S214 phosphorylated tau in the total tau, ELISA, 0.06 µg PRKX expression plasmid” value [2] of the same protein?
**A.** Its value is 2.5-fold, 3.4-fold and 5.8-fold enhanced S214 phosphorylation was found in the cells incorporating 0.02 µg, 0.06 µg and 0.2 µg of PRKX expression plasmid, respectively.

**Q.** And the “amount of S214 phosphorylated tau in the total tau, ELISA, 0.2 µg PRKX expression plasmid” value [2]?
**A.** The value was 2.5-fold, 3.4-fold and 5.8-fold enhanced S214 phosphorylation was found in the cells incorporating 0.02 µg, 0.06 µg and 0.2 µg of PRKX expression plasmid, respectively.

B2: inactive PRKX protein without kinase activity (D172A), overexpressed from pD172A plasmid or D172A overexpression lentivirus (protein)
chain: MEAPGLAQAAAAESDSRKVAEETPDGAPALCPSPEALSPEPPVYSLQDFDTLATVGTGTFGRVHLVKEKTAKHFFALKVMSIPDVIRLKQEQHVHNEKSVLKEVSHPFLIRLFWTWHDERFLYMLMEYVPGGELFSYLRNRGRFSSTTGLFYSAEIICAIEYLHSKEIVYRALKPENILLDRDGHIKLTDFGFAKKLVDRTWTLCGTPEYLAPEVIQSKGHGRAVDWWALGILIFEMLSGFPPFFDDNPFGIYQKILAGKIDFPRHLDFHVKDLIKKLLVVDRTRRLGNMKNGANDVKHHRWFRSVDWEAVPQRKLKPPIVPKIAGDGDTSNFETYPENDWDTAAPVPQKDLEIFKNF
**Q.** Which results are given for B2?
**A.** amount of S214 phosphorylated tau, ELISA, D172A lentivirus MOI 1, 6 [1]: D172A overexpression lentivirus and lacZ overexpression lentivirus did not show an enhanced amount of S214 phosphorylated tau; S214 phosphorylation of tau, Western blot and ELISA [2]: enhanced S214 phosphorylation was not found in pD172A tranfected cell
